Source: paper PMC5924885 (Proceedings of the National Academy of Sciences of the …, 2018)

Target: Akt1 kinase domain (Akt1^KD) (human, UniProt P31749 144-472, exclusively monophosphorylated, predominantly in the turn motif (T450))
Experiment: fluorescence polarisation

Sequence of Akt1 kinase domain (Akt1^KD) (P31749 144-472): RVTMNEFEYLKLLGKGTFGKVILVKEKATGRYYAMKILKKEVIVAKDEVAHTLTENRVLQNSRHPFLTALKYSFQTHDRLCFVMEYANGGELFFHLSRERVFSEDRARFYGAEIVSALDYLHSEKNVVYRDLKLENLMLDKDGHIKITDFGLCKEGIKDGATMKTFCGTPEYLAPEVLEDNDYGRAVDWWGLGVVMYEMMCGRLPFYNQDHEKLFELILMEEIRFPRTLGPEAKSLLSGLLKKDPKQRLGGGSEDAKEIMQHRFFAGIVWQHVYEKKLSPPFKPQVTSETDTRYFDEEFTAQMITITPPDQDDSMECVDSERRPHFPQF

B1: Atto488-labeled Akt1 PH domain (Akt1^1-120 T101C) (domain or fragment, human, UniProt P31749 1-120, looked up)
chain: MSDVAIVKEGWLHKRGEYIKTWRPRYFLLKNDGTFIGYKERPQDVDQREAPLNNFSVAQCQLMKTERPRPNTFIIRCLQWTTVIERTFHVETPEEREEWTCAIQTVADGLKKQEEEEMDF
modifications: Atto488 (maleimide) label, about 50% labeling efficiency
  Kd: 7 µM
